We go through seven molecules from patent publication US20210047410A1 (ONCOLMMUNE, published 2021).

The target of experiment [1] is OFP-tagged human CTLA-4 on CHO cells (human) (UniProt P16410).
Experiment [2] has as its target human CTLA-4 on or in cells (T cells of Ctla4 h/h knock-in mice; CHO stable lines and 293T cells expressing hCTLA-4) (human) (UniProt P16410). The experiment is described as follows: cell-based or functional assay.
The target of experiment [3] is human CTLA-4-Fc (human) (UniProt P16410). The experiment is described as follows: competition ELISA; hB7-2-Fc coated, biotinylated CTLA-4-Fc at […].
Experiment [4] has the same target. Nature of the experiment: competition ELISA; hB7-1-Fc coated at 0.5 µg/ml, biotinylated CTLA-4-Fc at […]. (In an ELISA, binding on a coated surface is turned into a signal by an enzyme label.)
The target is the same in experiment [5]. The experiment is described as follows: BLI (Octet Red96); antibody on anti-hIgG-Fc biosensor, antigen in solution from 600 nM. A general note: BLI is a label-free optical method that tracks binding on a fibre tip over time.
Experiment [6] shares this target. The experiment is described as follows: ELISA: antibody coated at varying doses, biotinylated CTLA-4-Fc at […], streptavidin-HRP.
For experiment [7] the target is unchanged. Nature of the experiment: competition ELISA: B7-2-Fc immobilized (blocked ligand), biotinylated CTLA-4-Fc at […], antibody varied.
Experiment [8] shares this target. The experiment is described as follows: competition ELISA: hCTLA-4-Fc coated at 1 µg/ml, blocked ligand biotinylated hB7-1-Fc at […], antibody varied.
The target is the same in experiment [9]. The experiment is described as follows: flow cytometry, competition: 200 ng hCTLA-4-Fc on CHO cells expressing mouse B7-1 (blocked ligand), antibody varied.
For experiment [10] the target is unchanged. The experiment is described as follows: competition ELISA: hCTLA-4-Ig immobilized at […], blocked ligand biotinylated hB7-1-Fc at […], antibody varied, avidin-HRP.
Experiment [11] has the same target. Nature of the experiment: flow cytometry, competition: biotinylated CTLA-4-Fc on CHO cells expressing hB7-1 (blocked ligand), antibody varied, PE-streptavidin. On the technique in general: Flow cytometry measures light scatter and fluorescence of single cells or particles in a stream.
The target is the same in experiment [12]. Nature of the experiment: flow cytometry, competition: biotinylated CTLA-4-Fc on CHO cells expressing mB7-2 (blocked ligand), antibody varied, PE-streptavidin.
The target is the same in experiment [13]. Nature of the experiment: flow cytometry, competition: biotinylated CTLA-4-Fc 200 ng/test on hB7-1-positive, FcR-negative L929 cells (blocked ligand), antibody varied, PE-streptavidin.
In experiment [14] the target is polyhistidine tagged human CTLA-4 (human) (UniProt P16410). The experiment is described as follows: flow cytometry, competition: 200 ng biotinylated polyhistidine-tagged CTLA-4 on CHO cells expressing human B7-1 (blocked ligand), antibody varied, PE-streptavidin.
The target in experiment [15] is T1, Recombinant mouse Ctla-4Fc protein (mouse, UniProt P09793 36-162, limits assumed).
T1 construct: Bought; also called biotinylated mouse Ctla-4-Fc; not shown: Fc part; not described
The experiment is described as follows: competition ELISA: B7-1 coated (blocked ligand), biotinylated mouse Ctla-4-Fc, antibody varied, avidin-HRP.

The target in experiment [16] is T1, Recombinant mouse Ctla-4Fc protein. The experiment is described as follows: competition ELISA: B7-2 coated (blocked ligand), biotinylated mouse Ctla-4-Fc, antibody varied, avidin-HRP.
Experiment [17] has as its target mouse Ctla-4 in cells (spleen CD3+CD4+ cells of Ctla4 m/m mice) (mouse) (UniProt P09793). Nature of the experiment: cell-based or functional assay.
The target in experiment [18] is T1, Recombinant mouse Ctla-4Fc protein. Nature of the experiment: competition ELISA: mB7-2 coated (blocked ligand), biotinylated mouse Ctla-4-Fc, antibody varied.
Experiment [19] shares this target. Nature of the experiment: ELISA, binding to soluble mouse Ctla-4-Fc; neither sheet nor legend says which component's concentration is on the axis.
The target is the same in experiment [20]. The experiment is described as follows: ELISA: plate bound mouse Ctla-4-Fc, antibody varied.
The target of experiment [21] is human CTLA-4-Fc (human) (UniProt P16410). The experiment is described as follows: BLI (Octet Red96).
Experiment [22] has as its target polyhistidine tagged human CTLA-4 (human) (UniProt P16410). Nature of the experiment: ELISA; His-hCTLA-4 coated at 0.5 µg/ml, varying antibody doses.

Broadly, the IC50 is the midpoint of a concentration-inhibition curve. The low end stands for greater potency in that assay, the high end for weaker potency in that assay. What is called Kd is the concentration at which binding is half-saturated. A higher Kd goes with lower affinity. For orientation: EC50 (read off the curve) means the concentration needed to bring the measured effect to its halfway point. As a reminder, the koff is the rate constant with which the complex falls apart. One may read the kon as the second-order rate constant of association. Read a high kon as faster complex formation.

Chain of OFP-tagged human CTLA-4 on CHO cells (human) (P16410 36-223): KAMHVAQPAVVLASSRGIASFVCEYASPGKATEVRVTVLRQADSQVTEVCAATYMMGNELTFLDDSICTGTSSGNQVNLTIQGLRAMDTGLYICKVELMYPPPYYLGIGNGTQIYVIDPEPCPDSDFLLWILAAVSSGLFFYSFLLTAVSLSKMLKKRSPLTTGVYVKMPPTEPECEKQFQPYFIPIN
Chain of polyhistidine tagged human CTLA-4 (human) (P16410 36-162 limits assumed): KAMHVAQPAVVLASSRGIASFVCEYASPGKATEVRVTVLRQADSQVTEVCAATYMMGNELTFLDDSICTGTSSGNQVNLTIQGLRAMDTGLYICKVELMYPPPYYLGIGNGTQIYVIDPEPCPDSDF
Chain of human CTLA-4-Fc (human) (P16410 37-161 limits assumed): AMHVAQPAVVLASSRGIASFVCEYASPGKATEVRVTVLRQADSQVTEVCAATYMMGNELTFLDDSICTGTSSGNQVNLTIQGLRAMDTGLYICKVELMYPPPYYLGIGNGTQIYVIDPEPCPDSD
Chain of human CTLA-4 on or in cells (T cells of Ctla4 h/h knock-in mice; CHO stable lines and 293T cells expressing hCTLA-4) (human) (P16410 36-223): as the sequence (P16410 36-223) above

Regarding “B7-H2-GFP on transfected P815 cells (ligand)”, in [1], the % GFP+OFP+ cells (upper right quadrant), Mix-0 h came out at 0.19%; the % GFP+OFP+ cells (upper right quadrant), Mix-1 h is 0.3%; the % GFP+OFP+ cells (upper right quadrant), Mix-4 h amounted to 0.49%.

Turning to “L3D10 chimera antibody (human IgG1 Fc and the variable regions of mouse anti-human CTLA-4 mAb L3D10)”, the level of hB7-2 on DC of human CD34+ reconstituted NSG mice in [2] was found to be 2.5 fold. In addition, the IC50 with human CTLA-4-Fc (human) [3] stood at 0.1 µg/mL; in the experiment with human CTLA-4-Fc (human) [4] it was 3 µg/mL. Moreover, the lowest concentration with significant blocking with human CTLA-4-Fc (human) [4] worked out at 0.2 µg/mL. The same molecule showed a Kd in the experiment with human CTLA-4-Fc (human) [5] of 2.3 nM. The molecule further returned an EC50 (read off the curve) with human CTLA-4-Fc (human) [6] of 1 µg/mL. Also, the IC50 (read off the curve) in the experiment with human CTLA-4-Fc (human) [7] was found to be 0.1 µg/mL; with human CTLA-4-Fc (human) [8], 0.2 µg/mL; with human CTLA-4-Fc (human) [9], 1 µg/mL; with human CTLA-4-Fc (human) [10] it was 0.4 µg/mL; in the experiment with human CTLA-4-Fc (human) [11], 8 µg/mL; with human CTLA-4-Fc (human) [12] it was 0.9 µg/mL. The IC50 (read off the curve) was 1 µg/mL with human CTLA-4-Fc (human) [13] and 2 µg/mL in experiment [14].

On to “hamster anti-mouse Ctla-4 mAb 4F10 (antibody)”, for which the IC50 (read off the curve) in [15] worked out at 1 µg/mL; in experiment [16], 0.3 µg/mL.

B1: anti-mouse Ctla-4 mAb 9D9 (antibody, V domains shown)
VH: EAKLQESGPVLVKPGASVKMSCKASGYTFTDYYMNWVKQSHGKSLEWIGVINPYNGDTSYNQKFKGKATLTVDKSSSTAYMELNSLTSEDSAVYYCARYYGSWFAYWGQGTLITVST
VL: DIVMTQTTLSLPVSLGDQASISCRSSQSIVHSNGNTYLEWYLQKPGQSPKLLIYKVSNRFSGVPDRFSGSGSGTDFTLKISRVEAEDLGVYYCFQGSHVPYTFGGGTKLEIK
Turning to B1, in experiment [17], the level of mB7-1 on DC of WT mice amounted to 15%. Moreover, the “IC50 (read off the curve)” value in experiment [18] is about 2 µg/mL. The “EC50 (read off the curve)” value in experiment [19] was about 0.4 µg/mL.

B2: anti-mouse Ctla-4 mAb 9H10 (antibody, from another filing)
scFv: YPYDVPDYAGAQPARSDIVMTQSPSSLAVSVGEKVTISCKSSQSLLYGSSHYLAWYQQKVGQSPKLLIYWASTRHTGIPDRFIGSGSGTDFTLSLSSVQAEDMADYFCQQYFSTPWTFGAGTRVEIKSGSGGGSGGGSGGGSQVQLLQSESELVKPGASVKLSCKTSGYTFTDYYIHWVKQKPGQGLEWIGLINPNNDGTNYNQKFQGKATLTADKSSSTAYMELNSLTFDDSVIYFCARASSRLRMARTTSDYYAMDYWGQGIQVTVSSVDSSGSGGCKPCICTVPEVSSVFIFPPKPKDVLTITLTPKVTCVVVDISKDDPEVQFSWFVDDVEVHTAQTQPREEQFNSTFRSVSELPIMHQDWLNGKEFKCRVNSAAFPAPIEKTISKTKGRPKAPQVYTIPPPKEQMAKDKVSLTCMITDFFPEDITVEWQWNGQPAENYKNTQPIMDTDGSYFVYSKLNVQKSNWEAGNTFTCSVLHEGLHNHHTEKSLSHSPGK
Regarding B2, in experiment [20], the EC50 (read off the curve) turned out to be 1 µg/mL.

B3: HL12 (humanized L3D10 clone) (antibody, from another filing, V domains shown)
VH: QVQLQESGPGLVKPSETLSLTCTVSGFSLTSYGLSWIRQPPGKGLEWIGYIWYDGNTNFHPSLKSRVTISKDTSKNQFSLKLSSVTAADTAVYYCAKTEGHYYGSNYGYYALDYWGQGTSVTVSS
VL: DIQMTQSPSSLSASVGDRVTITCRASENIYSNLAWYQQKQGKAPKLLLYAATNLQDGVPSRFSGSGSGTDYTLTISSLQPEDFATYFCQHLWGTPYTFGQGTKLEIK
In turn, B3 showed a fold increase in off-rate against L3D10 in the experiment with human CTLA-4-Fc (human) [21] of 4 fold. In experiment [22], the fold reduction of binding at pH 4.5 against pH 7.0 (by increase of IC50) was over 100 fold and the fold reduction of binding at pH 5.5 against pH 7.0 (by increase of IC50) is over 10 fold. In the experiment with human CTLA-4-Fc (human) [5], this molecule came in with a Kd of 7.2 nM, a koff of 0.0016 s⁻¹ and a kon of 230000 M⁻¹ s⁻¹.

B4: HL32 (humanized L3D10 clone) (antibody, from another filing, V domains shown)
VH: QVQLQESGPGLVKPSETLSLTCTVSGFSLTSYGLSWIRQPPGKGLEWIGYIWYDGNTNFHSPLKSRVTISVDTSKNQFSLKLSSVTAADTAVYYCAKTEGHYYGSNYGYYALDYWGQGTLVTVSS
VL: DIQMTQSPSSLSASVGDRVTITCRASENIYSNLAWYQQKQGKAPKLLLYAATNLQDGVPSRFSGSGSGTDYTLTISSLQPEDFATYFCQHLWGTPYTFGQGTKLEIK
In turn, B4 returned a fold increase in off-rate against L3D10 with human CTLA-4-Fc (human) [21] of 4 fold. In experiment [22], this molecule registered a fold reduction of binding at pH 4.5 against pH 7.0 (by increase of IC50) of over 100 fold and a fold reduction of binding at pH 5.5 against pH 7.0 (by increase of IC50) of over 10 fold. Further, in the experiment with human CTLA-4-Fc (human) [5], the Kd is 7.1 nM, the koff was determined as 0.0019 s⁻¹ and the on-rate constant (kon) turned out to be 270000 M⁻¹ s⁻¹.
